Laboratory results reported in article doi:10.1101/2021.01.22.427567 (bioRxiv, 2021).

Target: SARS-CoV-2 S trimer (SARS-CoV-2, wild-type (Wuhan-Hu-1 …, UniProt P0DTC2))
Assay: SPR

B1: C121 IgG (antibody, V domains shown)
VH: not shown
VL: QSALTQPASVSGSPGQSITISCTGTSSDVGSYNLVSWYQQHPGKAPKLMIYEGSKRPSGVSNRFSGSKSGNTASLTISGLQAEDEADYYCCSYAGSSTLVFGGGTKLTVL
binding result: binds
